Source: the RNAGym collection of RNA variant scans (doi:10.1093/molbev/msab373)

B1: Azoarcus group I ribozyme (parent)
chain: GUGCCUUGCGCCGGGAAACCACGCAAGGGAUGGUGUCAAAUUCGGCGAAACCUAAGCGCCCGCCCGGGCGUAUGGCAACGCCGAGCCAAGCUUCGGCGCCUGCGCCGAUGAAGGUGUAGAGACUAGACGGCACCCACCUAAGGCAAACGCUAUGGUGAAGGCAUAGUCCAGGGAGUGGCGAAAGUCACACAAACCGG

Variants of: B1
Assay: reverse-splicing fitness (ratio to wild type); higher = more active; in vitro selection; Mg2+ level not given
Summary of the method: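 An in vitro group I ribozyme library with randomized positions was T7-transcribed and gel-purified. In triplicate, 10 pmol RNA in EPPS pH 7.5 was reacted with 50 pmoles of a 30-nt RNA substrate for 1 h at 37 °C across several added MgCl2 levels (1–48 mM), then stopped with EDTA. Products were reverse transcribed from a substrate-complementary primer, PCR-amplified and sequenced (HiSeq 4000). Fitness is a variant's read proportion after selection over that before, normalised to wild type.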

| Variant | reverse-splicing fitness |
| --- | --- |
| GUGCCUUGCGCCGGGAAACCACGCAAGGGAUGGUGUCAAAUUCGGCGAAACCUAAGCGCCCGCCCGGGCGUAUGGCAACGCGGAGCCAAGCUUCGGCGCCUGCGCCGAUGGAGGUGUAGCGACUAGACGGCACCCACCUAAGGCGAACGCUAUGGUGAAGGCAUAGUCGAGGGAGAGGCGAAAGUCACACAAACCGG [C82G A111G A120C A145G C169G U176A] | 0.0158 |
| GUGCCUUGCGCCGGGAAACCACGCAAGGGAUGGUGUCAAAUUCGGCGAAACCUAAGCGCCCGCCCGGGCGUAUGGCAACGCGGAGCCAAGCUUCGGCGCCUGCGCCGAUGGAGGUGUAGCGACUAGACGGCACCCACCUAAGGCGAACGCUAUGGUGAAGGCAUAGUCGAGGGAGCGGCGAAAGUCACACAAACCGG [C82G A111G A120C A145G C169G U176C] | 0.0188 |
| GUGCCUUGCGCCGGGAAACCACGCAAGGGAUGGUGUCAAAUUCGGCGAAACCUAAGCGCCCGCCCGGGCGUAUGGCAACGCGGAGCCAAGCUUCGGCGCCUGCGCCGAUGGAGGUGUAGCGACUAGACGGCACCCACCUAAGGCGAACGCUAUGGUGAAGGCAUAGUCGAGGGAGGGGCGAAAGUCACACAAACCGG [C82G A111G A120C A145G C169G U176G] | 0.00476 |
| GUGCCUUGCGCCGGGAAACCACGCAAGGGAUGGUGUCAAAUUCGGCGAAACCUAAGCGCCCGCCCGGGCGUAUGGCAACGCGGAGCCAAGCUUCGGCGCCUGCGCCGAUGGAGGUGUAGCGACUAGACGGCACCCACCUAAGGCUAACGAUAUGGUGAAGGCAUAGUCAAGGGAGAGGCGAAAGUCACACAAACCGG [C82G A111G A120C A145U C150A C169A U176A] | 0.0183 |
| GUGCCUUGCGCCGGGAAACCACGCAAGGGAUGGUGUCAAAUUCGGCGAAACCUAAGCGCCCGCCCGGGCGUAUGGCAACGCGGAGCCAAGCUUCGGCGCCUGCGCCGAUGGAGGUGUAGCGACUAGACGGCACCCACCUAAGGCUAACGAUAUGGUGAAGGCAUAGUCAAGGGAGGGGCGAAAGUCACACAAACCGG [C82G A111G A120C A145U C150A C169A U176G] | 0.0061 |
| GUGCCUUGCGCCGGGAAACCACGCAAGGGAUGGUGUCAAAUUCGGCGAAACCUAAGCGCCCGCCCGGGCGUAUGGCAACGCGGAGCCAAGCUUCGGCGCCUGCGCCGAUGGAGGUGUAGCGACUAGACGGCACCCACCUAAGGCUAACGAUAUGGUGAAGGCAUAGUCAAGGGAGCGGCGAAAGUCACACAAACCGG [C82G A111G A120C A145U C150A C169A U176C] | 0.0161 |
| GUGCCUUGCGCCGGGAAACCACGCAAGGGAUGGUGUCAAAUUCGGCGAAACCUAAGCGCCCGCCCGGGCGUAUGGCAACGCGGAGCCAAGCUUCGGCGCCUGCGCCGAUGGAGGUGUAGCGACUAGACGGCACCCACCUAAGGCGAACGUUAUGGUGAAGGCAUAGUCCAGGGAGGGGCGAAAGUCACACAAACCGG [C82G A111G A120C A145G C150U U176G] | 0.0117 |
| GUGCCUUGCGCCGGGAAACCACGCAAGGGAUGGUGUCAAAUUCGGCGAAACCUAAGCGCCCGCCCGGGCGUAUGGCAACGCGGAGCCAAGCUUCGGCGCCUGCGCCGAUGGAGGUGUAGCGACUAGACGGCACCCACCUAAGGCGAACGUUAUGGUGAAGGCAUAGUCCAGGGAGCGGCGAAAGUCACACAAACCGG [C82G A111G A120C A145G C150U U176C] | 0.0344 |
| GUGCCUUGCGCCGGGAAACCACGCAAGGGAUGGUGUCAAAUUCGGCGAAACCUAAGCGCCCGCCCGGGCGUAUGGCAACGCGGAGCCAAGCUUCGGCGCCUGCGCCGAUGGAGGUGUAGCGACUAGACGGCACCCACCUAAGGCGAACGUUAUGGUGAAGGCAUAGUCCAGGGAGAGGCGAAAGUCACACAAACCGG [C82G A111G A120C A145G C150U U176A] | 0.0189 |
| GUGCCUUGCGCCGGGAAACCACGCAAGGGAUGGUGUCAAAUUCGGCGAAACCUAAGCGCCCGCCCGGGCGUAUGGCAACGCGGAGCCAAGCUUCGGCGCCUGCGCCGAUGGAGGUGUAGCGACUAGACGGCACCCACCUAAGGCGAACGCUAUGGUGAAGGCAUAGUCGAGGGAGUGGCGAAAGUCACACAAACCGG [C82G A111G A120C A145G C169G] | 0.0079 |
| GUGCCUUGCGCCGGGAAACCACGCAAGGGAUGGUGUCAAAUUCGGCGAAACCUAAGCGCCCGCCCGGGCGUAUGGCAACGCGGAGCCAAGCUUCGGCGCCUGCGCCGAUGGAGGUGUAGCGACUAGACGGCACCCACCUAAGGCGAACGCUAUGGUGAAGGCAUAGUCUAGGGAGUGGCGAAAGUCACACAAACCGG [C82G A111G A120C A145G C169U] | 0.015 |
| GUGCCUUGCGCCGGGAAACCACGCAAGGGAUGGUGUCAAAUUCGGCGAAACCUAAGCGCCCGCCCGGGCGUAUGGCAACGCGGAGCCAAGCUUCGGCGCCUGCGCCGAUGGAGGUGUAGCGACUAGACGGCACCCACCUAAGGCGAACGCUAUGGUGAAGGCAUAGUCAAGGGAGUGGCGAAAGUCACACAAACCGG [C82G A111G A120C A145G C169A] | 0.00771 |
| GUGCCUUGCGCCGGGAAACCACGCAAGGGAUGGUGUCAAAUUCGGCGAAACCUAAGCGCCCGCCCGGGCGUAUGGCAACGCGGAGCCAAGCUUCGGCGCCUGCGCCGAUGGAGGUGUAGCGACUAGACGGCACCCACCUAAGGCUAACGAUAUGGUGAAGGCAUAGUCAAGGGAGUGGCGAAAGUCACACAAACCGG [C82G A111G A120C A145U C150A C169A] | 0.0104 |
| GUGCCUUGCGCCGGGAAACCACGCAAGGGAUGGUGUCAAAUUCGGCGAAACCUAAGCGCCCGCCCGGGCGUAUGGCAACGCGGAGCCAAGCUUCGGCGCCUGCGCCGAUGGAGGUGUAGCGACUAGACGGCACCCACCUAAGGCUAACGAUAUGGUGAAGGCAUAGUCGAGGGAGUGGCGAAAGUCACACAAACCGG [C82G A111G A120C A145U C150A C169G] | 0.00822 |
| GUGCCUUGCGCCGGGAAACCACGCAAGGGAUGGUGUCAAAUUCGGCGAAACCUAAGCGCCCGCCCGGGCGUAUGGCAACGCGGAGCCAAGCUUCGGCGCCUGCGCCGAUGGAGGUGUAGCGACUAGACGGCACCCACCUAAGGCUAACGAUAUGGUGAAGGCAUAGUCUAGGGAGUGGCGAAAGUCACACAAACCGG [C82G A111G A120C A145U C150A C169U] | 0.00952 |
